Measured values: paper PMC12416549 (2024)
Numbering of substitutions follows the chain as printed. Numbers in names are those of the source.

T1: TNFR1 (Homo sapiens, UniProt P19438)
T1 chain: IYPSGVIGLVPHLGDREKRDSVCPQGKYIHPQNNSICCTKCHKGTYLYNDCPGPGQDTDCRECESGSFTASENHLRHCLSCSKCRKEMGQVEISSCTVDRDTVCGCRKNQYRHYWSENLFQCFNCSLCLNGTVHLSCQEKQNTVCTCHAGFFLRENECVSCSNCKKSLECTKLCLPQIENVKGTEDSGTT

B1: A9V (designed binder)
chain: SMEEEVEKVAKEYEKKKKEAIEKHLEKLKAKDKEAAERFLKELEEAAKEYAKDEAKTMSEEEAKRRAKKYKEKVLLSELSEEEQKEIKEAEEKLVRTILKYVEEAAK
B2: A47L (designed binder)
chain: B1 chain with V9A, A47L
B3: R38S (designed binder)
chain: B1 chain with V9A, R38S
B4: K71D (designed binder)
chain: B1 chain with V9A, K71D
B5: K29G (designed binder)
chain: B1 chain with V9A, K29G
B6: K8D (designed binder)
chain: B1 chain with K8D, V9A
B7: K8C (designed binder)
chain: B1 chain with K8C, V9A
B8: V74D (designed binder)
chain: B1 chain with V9A, V74D
B9: I87S (designed binder)
chain: B1 chain with V9A, I87S
B10: E3Y (designed binder)
chain: B1 chain with E3Y, V9A
B11: D53I (designed binder)
chain: B1 chain with V9A, D53I
B12: K93Q (designed binder)
chain: B1 chain with V9A, K93Q
B13: K8E (designed binder)
chain: B1 chain with K8E, V9A
B14: Y13A (designed binder)
chain: B1 chain with V9A, Y13A
B15: A67Q (designed binder)
chain: B1 chain with V9A, A67Q
B16: A106G (designed binder)
chain: B1 chain with V9A, A106G
B17: A55P (designed binder)
chain: B1 chain with V9A, A55P
B18: H24S (designed binder)
chain: B1 chain with V9A, H24S
B19: M58T (designed binder)
chain: B1 chain with V9A, M58T
B20: K8L (designed binder)
chain: B1 chain with K8L, V9A
B21: L76N (designed binder)
chain: B1 chain with V9A, L76N
B22: E82K (designed binder)
chain: B1 chain with V9A, E82K
B23: E78K (designed binder)
chain: B1 chain with V9A, E78K
B24: L75I (designed binder)
chain: B1 chain with V9A, L75I
B25: Y13Q (designed binder)
chain: B1 chain with V9A, Y13Q
B26: L25P (designed binder)
chain: B1 chain with V9A, L25P
B27: K17G (designed binder)
chain: B1 chain with V9A, K17G
B28: K69N (designed binder)
chain: B1 chain with V9A, K69N
B29: A10M (designed binder)
chain: B1 chain with V9A, A10M
B30: A105P (designed binder)
chain: B1 chain with V9A, A105P
B31: E81H (designed binder)
chain: B1 chain with V9A, E81H
B32: T57M (designed binder)
chain: B1 chain with V9A, T57M
B33: S1F (designed binder)
chain: B1 chain with S1F, V9A
B34: A30R (designed binder)
chain: B1 chain with V9A, A30R
B35: E92I (designed binder)
chain: B1 chain with V9A, E92I
B36: A20L (designed binder)
chain: B1 chain with V9A, A20L
B37: K107P (designed binder)
chain: B1 chain with V9A, K107P
B38: E44K (designed binder)
chain: B1 chain with V9A, E44K
B39: A36D (designed binder)
chain: B1 chain with V9A, A36D
B40: E82V (designed binder)
chain: B1 chain with V9A, E82V
B41: K107H (designed binder)
chain: B1 chain with V9A, K107H
B42: L76R (designed binder)
chain: B1 chain with V9A, L76R
B43: K100V (designed binder)
chain: B1 chain with V9A, K100V
B44: E72H (designed binder)
chain: B1 chain with V9A, E72H
B45: E14H (designed binder)
chain: B1 chain with V9A, E14H
B46: K73L (designed binder)
chain: B1 chain with V9A, K73L
B47: E42P (designed binder)
chain: B1 chain with V9A, E42P
B48: K85N (designed binder)
chain: B1 chain with V9A, K85N
B49: E83G (designed binder)
chain: B1 chain with V9A, E83G
B50: A35P (designed binder)
chain: B1 chain with V9A, A35P
B51: A9R (designed binder)
chain: B1 chain with V9R
B52: A10R (designed binder)
chain: B1 chain with V9A, A10R
B53: T57V (designed binder)
chain: B1 chain with V9A, T57V
B54: L94G (designed binder)
chain: B1 chain with V9A, L94G
B55: A106K (designed binder)
chain: B1 chain with V9A, A106K
B56: E14Q (designed binder)
chain: B1 chain with V9A, E14Q
B57: K68P (designed binder)
chain: B1 chain with V9A, K68P
B58: K27L (designed binder)
chain: B1 chain with V9A, K27L
B59: T97V (designed binder)
chain: B1 chain with V9A, T97V

Biological target: T1, TNFR1
Assay: yeast display SC50

| Binder | apparent Kd (screen) [nM] |
| --- | --- |
| B1 | 0.49 |
| B2 | 13.8 |
| B3 | 2.73 |
| B4 | 16.7 |
| B5 | 0.446 |
| B6 | 1.4 |
| B7 | 0.956 |
| B8 | 0.405 |
| B9 | 12.5 |
| B10 | 5.84 |
| B11 | 12.5 |
| B12 | 0.49 |
| B13 | 1.54 |
| B14 | 0.49 |
| B15 | 11.4 |
| B16 | 0.79 |
| B17 | 12.5 |
| B18 | 0.869 |
| B19 | 4.83 |
| B20 | 0.718 |

| Binder | apparent Kd (screen) [nM] |
| --- | --- |
| B21 | 2.73 |
| B22 | 0.446 |
| B23 | 4.83 |
| B24 | 0.79 |
| B25 | 1.69 |
| B26 | 8.56 |
| B27 | 2.73 |
| B28 | 2.48 |
| B29 | 2.73 |
| B30 | 0.653 |
| B31 | 0.593 |
| B32 | 0.446 |
| B33 | 4.39 |
| B34 | 0.79 |
| B35 | 12.5 |
| B36 | 0.405 |
| B37 | 0.956 |
| B38 | 0.956 |
| B39 | 0.446 |
| B40 | 0.539 |

| Binder | apparent Kd (screen) [nM] |
| --- | --- |
| B41 | 1.86 |
| B42 | 7.07 |
| B43 | 1.4 |
| B44 | 2.73 |
| B45 | 2.73 |
| B46 | 7.07 |
| B47 | 4.83 |
| B48 | 0.446 |
| B49 | 1.69 |
| B50 | 1.4 |
| B51 | 0.335 |
| B52 | 0.446 |
| B53 | 0.49 |
| B54 | 2.25 |
| B55 | 0.593 |
| B56 | 4.83 |
| B57 | 7.07 |
| B58 | 1.16 |
| B59 | 2.73 |
